The assay has as its target mature METTL8-Iso1 (Met1-Gln22 deleted) with a C-terminal His6 tag (human). The experiment in a line: SEC. On the technique in general: SEC sorts molecules by how far they enter the pores of the column.

By stoichiometry N is commonly meant the number of molecules, sites or subunits per partner or assembly. “mature METTL8-Iso1 (Met1-Gln22 deleted) with a C-terminal His6 tag (enzyme)”: the stoichiometry N came out at 8.
